Reference: publication PMC9482650, “Quantitative fragmentomics allow affinity mapping of interactomes” (Nature Communications, 2022)
Changes are numbered by the printed parent chain.

T1: APBA1_1, Q02410
T1 sequence (Q02410 651-752, limits assumed, looked up): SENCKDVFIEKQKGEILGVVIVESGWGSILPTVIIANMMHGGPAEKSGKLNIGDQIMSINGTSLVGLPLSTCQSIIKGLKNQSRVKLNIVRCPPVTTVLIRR

T2: ARHGAP21, Q5T5U3
T2 sequence (Q5T5U3 45-169, limits assumed, looked up): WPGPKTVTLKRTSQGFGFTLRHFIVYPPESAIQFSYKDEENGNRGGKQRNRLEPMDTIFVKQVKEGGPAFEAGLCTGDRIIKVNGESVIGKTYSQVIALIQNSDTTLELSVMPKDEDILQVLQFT

T3: DFNB31_2, Q9P202
T3 sequence (Q9P202 274-371, limits assumed, looked up): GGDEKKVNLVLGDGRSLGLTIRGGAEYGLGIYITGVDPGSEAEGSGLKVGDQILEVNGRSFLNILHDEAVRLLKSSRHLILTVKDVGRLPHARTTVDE

T4: DLG3_2, Q92796
T4 sequence (Q92796 221-321, limits assumed, looked up): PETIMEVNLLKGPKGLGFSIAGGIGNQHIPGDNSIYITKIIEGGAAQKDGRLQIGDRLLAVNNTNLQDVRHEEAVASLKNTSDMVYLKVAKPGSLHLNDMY

T5: GRIP1_3, Q9Y3R0
T5 sequence (Q9Y3R0 247-346, limits assumed, looked up): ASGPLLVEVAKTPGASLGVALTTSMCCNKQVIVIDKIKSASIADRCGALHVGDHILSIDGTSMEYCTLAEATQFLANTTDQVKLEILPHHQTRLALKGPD

T6: GRIP1_4, Q9Y3R0
T6 sequence (Q9Y3R0 467-571, limits assumed, looked up): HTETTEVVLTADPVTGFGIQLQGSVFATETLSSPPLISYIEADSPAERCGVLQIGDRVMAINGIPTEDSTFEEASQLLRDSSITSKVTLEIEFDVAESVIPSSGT

T7: HTRA3, P83110
T7 sequence (P83110 354-453, limits assumed, looked up): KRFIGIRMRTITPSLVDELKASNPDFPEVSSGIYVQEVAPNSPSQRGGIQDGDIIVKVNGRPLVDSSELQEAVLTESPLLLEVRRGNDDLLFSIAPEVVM

T8: LIN7B, Q9HAP6
T8 sequence (Q9HAP6 88-185, limits assumed, looked up): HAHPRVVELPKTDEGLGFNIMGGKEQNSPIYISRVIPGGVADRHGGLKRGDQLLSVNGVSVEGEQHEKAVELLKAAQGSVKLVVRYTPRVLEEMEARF

T9: LIN7C, Q9NUP9
T9 sequence (Q9NUP9 88-185, limits assumed, looked up): T8 sequence (Q9HAP6 88-185, limits assumed, looked up) with A2S, D13E, V35I, V40I, Q65H, S79K, R89K, A96S

T10: MPP7, Q5T2T1
T10 sequence (Q5T2T1 134-230, limits assumed, looked up): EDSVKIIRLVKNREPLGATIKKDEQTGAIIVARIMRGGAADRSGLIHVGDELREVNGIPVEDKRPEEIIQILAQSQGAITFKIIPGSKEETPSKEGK

T11: PDZRN3_1, Q9UPQ7
T11 sequence (Q9UPQ7 244-349, limits assumed, looked up): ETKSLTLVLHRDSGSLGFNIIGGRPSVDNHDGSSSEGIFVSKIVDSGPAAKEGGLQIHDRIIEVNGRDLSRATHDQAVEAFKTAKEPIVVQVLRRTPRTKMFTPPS

B1: TRPV3, Q8NET8 (peptide)
chain: EVEEFPETSV
B2: CLDN1, O95832 (peptide)
chain: PAPSSGKDYV

Molecular target: T1, APBA1_1, Q02410
Assay: holdup assay
Design: key: below the threshold = too weak to quantify, mostly under pKd 3.1 to 4
Settings: plain residues with an end cap or a label only (N-terminal biotin on a linker: ado-ado)

pKd | Binder
below the threshold | B1
below the threshold | B2

Molecular target: T2, ARHGAP21, Q5T5U3
Assay: holdup assay
Design: key: below the threshold = too weak to quantify, mostly under pKd 3.1 to 4
Settings: plain residues with an end cap or a label only (N-terminal biotin on a linker: ado-ado)

pKd | Binder
4.15 | B1
below the threshold | B2

Molecular target: CASK, O14936
Assay: holdup assay
Design: key: below the threshold = too weak to quantify, mostly under pKd 3.1 to 4
Settings: plain residues with an end cap or a label only (N-terminal biotin on a linker: ado-ado)

CASK, O14936, sequence (O14936 487-570): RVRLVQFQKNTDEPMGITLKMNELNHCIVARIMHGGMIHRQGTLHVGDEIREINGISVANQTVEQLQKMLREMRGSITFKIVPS

pKd | Binder
below the threshold | B1
below the threshold | B2

Molecular target: T3, DFNB31_2, Q9P202
Assay: holdup assay
Design: key: below the threshold = too weak to quantify, mostly under pKd 3.1 to 4
Settings: plain residues with an end cap or a label only (N-terminal biotin on a linker: ado-ado)

pKd | Binder
3.5 | B1
below the threshold | B2

Molecular target: T4, DLG3_2, Q92796
Assay: holdup assay
Design: key: below the threshold = too weak to quantify, mostly under pKd 3.1 to 4
Settings: plain residues with an end cap or a label only (N-terminal biotin on a linker: ado-ado)

pKd | Binder
4.22 | B1
below the threshold | B2

Molecular target: DLG4_1, P78352
Assay: holdup assay
Design: key: below the threshold = too weak to quantify, mostly under pKd 3.1 to 4
Settings: plain residues with an end cap or a label only (N-terminal biotin on a linker: ado-ado)

DLG4_1, P78352, sequence (P78352 62-152): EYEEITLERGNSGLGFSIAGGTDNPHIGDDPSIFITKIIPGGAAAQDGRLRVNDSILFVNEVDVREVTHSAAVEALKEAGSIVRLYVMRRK

pKd | Binder
4.36 | B1
3.6 | B2

Molecular target: FRMPD3, Q5JV73
Assay: holdup assay
Design: key: below the threshold = too weak to quantify, mostly under pKd 3.1 to 4
Settings: plain residues with an end cap or a label only (N-terminal biotin on a linker: ado-ado)

FRMPD3, Q5JV73, sequence (Q5JV73 12-100): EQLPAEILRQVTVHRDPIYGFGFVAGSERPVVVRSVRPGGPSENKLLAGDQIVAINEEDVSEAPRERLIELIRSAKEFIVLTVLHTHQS

pKd | Binder
3.59 | B1
below the threshold | B2

Molecular target: FRMPD4, Q14CM0
Assay: holdup assay
Design: key: below the threshold = too weak to quantify, mostly under pKd 3.1 to 4
Settings: plain residues with an end cap or a label only (N-terminal biotin on a linker: ado-ado)

FRMPD4, Q14CM0, sequence (Q14CM0 67-160): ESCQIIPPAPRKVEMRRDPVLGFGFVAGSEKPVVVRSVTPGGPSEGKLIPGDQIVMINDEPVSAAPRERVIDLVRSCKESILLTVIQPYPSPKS

pKd | Binder
3.74 | B1
3.59 | B2

Molecular target: GIPC2, Q8TF65
Assay: holdup assay
Design: key: below the threshold = too weak to quantify, mostly under pKd 3.1 to 4
Settings: plain residues with an end cap or a label only (N-terminal biotin on a linker: ado-ado)

GIPC2, Q8TF65, sequence (Q8TF65 112-203): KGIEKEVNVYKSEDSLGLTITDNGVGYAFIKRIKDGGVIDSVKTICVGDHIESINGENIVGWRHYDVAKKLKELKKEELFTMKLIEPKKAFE

pKd | Binder
4.32 | B1
below the threshold | B2

Molecular target: GORASP1, Q9BQQ3
Assay: holdup assay
Design: key: below the threshold = too weak to quantify, mostly under pKd 3.1 to 4
Settings: plain residues with an end cap or a label only (N-terminal biotin on a linker: ado-ado)

GORASP1, Q9BQQ3, sequence (Q9BQQ3 1-208): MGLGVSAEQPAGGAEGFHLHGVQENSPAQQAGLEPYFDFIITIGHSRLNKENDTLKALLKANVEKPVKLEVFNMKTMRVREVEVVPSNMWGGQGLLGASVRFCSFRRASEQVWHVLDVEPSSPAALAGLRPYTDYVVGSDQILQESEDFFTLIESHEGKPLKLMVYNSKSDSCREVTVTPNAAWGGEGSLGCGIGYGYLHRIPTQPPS

pKd | Binder
3.54 | B1
below the threshold | B2

Molecular target: GORASP2, Q9H8Y8
Assay: holdup assay
Design: key: below the threshold = too weak to quantify, mostly under pKd 3.1 to 4
Settings: plain residues with an end cap or a label only (N-terminal biotin on a linker: ado-ado)

pKd | Binder
3.51 | B1
3.67 | B2

Molecular target: GRID2IP_1, A4D2P6
Assay: holdup assay
Design: key: below the threshold = too weak to quantify, mostly under pKd 3.1 to 4
Settings: plain residues with an end cap or a label only (N-terminal biotin on a linker: ado-ado)

GRID2IP_1, A4D2P6, sequence (A4D2P6 1-87): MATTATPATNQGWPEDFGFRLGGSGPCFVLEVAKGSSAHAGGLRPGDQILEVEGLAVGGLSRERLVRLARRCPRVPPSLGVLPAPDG

pKd | Binder
3.7 | B1
below the threshold | B2

Molecular target: T5, GRIP1_3, Q9Y3R0
Assay: holdup assay
Design: key: below the threshold = too weak to quantify, mostly under pKd 3.1 to 4
Settings: plain residues with an end cap or a label only (N-terminal biotin on a linker: ado-ado)

pKd | Binder
3.49 | B1
below the threshold | B2

Molecular target: T6, GRIP1_4, Q9Y3R0
Assay: holdup assay
Design: key: below the threshold = too weak to quantify, mostly under pKd 3.1 to 4
Settings: plain residues with an end cap or a label only (N-terminal biotin on a linker: ado-ado)

pKd | Binder
3.47 | B1
below the threshold | B2

Molecular target: GRIP2_5, Q9C0E4
Assay: holdup assay
Design: key: below the threshold = too weak to quantify, mostly under pKd 3.1 to 4
Settings: plain residues with an end cap or a label only (N-terminal biotin on a linker: ado-ado)

GRIP2_5, Q9C0E4, sequence (Q9C0E4 544-642): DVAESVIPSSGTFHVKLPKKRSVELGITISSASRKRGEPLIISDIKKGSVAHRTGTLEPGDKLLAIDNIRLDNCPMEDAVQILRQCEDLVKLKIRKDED

pKd | Binder
below the threshold | B1
below the threshold | B2

Molecular target: T7, HTRA3, P83110
Assay: holdup assay
Design: key: below the threshold = too weak to quantify, mostly under pKd 3.1 to 4
Settings: plain residues with an end cap or a label only (N-terminal biotin on a linker: ado-ado)

pKd | Binder
below the threshold | B1
3.95 | B2

Molecular target: Inadl_2, Q8NI35
Assay: holdup assay
Design: key: below the threshold = too weak to quantify, mostly under pKd 3.1 to 4
Settings: plain residues with an end cap or a label only (N-terminal biotin on a linker: ado-ado)

Inadl_2, Q8NI35, sequence (Q8NI35 238-335): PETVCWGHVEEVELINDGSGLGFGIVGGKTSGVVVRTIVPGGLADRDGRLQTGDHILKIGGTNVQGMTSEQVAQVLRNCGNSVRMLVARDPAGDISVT

pKd | Binder
below the threshold | B1
below the threshold | B2

Molecular target: T8, LIN7B, Q9HAP6
Assay: holdup assay
Design: key: below the threshold = too weak to quantify, mostly under pKd 3.1 to 4
Settings: plain residues with an end cap or a label only (N-terminal biotin on a linker: ado-ado)

pKd | Binder
4.3 | B1
below the threshold | B2

Molecular target: T9, LIN7C, Q9NUP9
Assay: holdup assay
Design: key: below the threshold = too weak to quantify, mostly under pKd 3.1 to 4
Settings: plain residues with an end cap or a label only (N-terminal biotin on a linker: ado-ado)

pKd | Binder
4.51 | B1
below the threshold | B2

Molecular target: LNX1_1, Q8TBB1
Assay: holdup assay
Design: key: below the threshold = too weak to quantify, mostly under pKd 3.1 to 4
Settings: plain residues with an end cap or a label only (N-terminal biotin on a linker: ado-ado)

LNX1_1, Q8TBB1, sequence (Q8TBB1 261-371): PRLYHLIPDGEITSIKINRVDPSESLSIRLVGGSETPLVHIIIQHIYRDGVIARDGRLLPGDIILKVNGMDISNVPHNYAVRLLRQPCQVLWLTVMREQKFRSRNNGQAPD

pKd | Binder
4.19 | B1
below the threshold | B2

Molecular target: MAGI2_3, Q86UL8
Assay: holdup assay
Design: key: below the threshold = too weak to quantify, mostly under pKd 3.1 to 4
Settings: plain residues with an end cap or a label only (N-terminal biotin on a linker: ado-ado)

MAGI2_3, Q86UL8, sequence (Q86UL8 600-682): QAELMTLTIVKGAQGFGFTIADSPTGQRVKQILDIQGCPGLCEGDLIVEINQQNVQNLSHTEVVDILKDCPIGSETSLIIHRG

pKd | Binder
4.06 | B1
below the threshold | B2

Molecular target: MAGI2_4, Q86UL8
Assay: holdup assay
Design: key: below the threshold = too weak to quantify, mostly under pKd 3.1 to 4
Settings: plain residues with an end cap or a label only (N-terminal biotin on a linker: ado-ado)

MAGI2_4, Q86UL8, sequence (Q86UL8 772-865): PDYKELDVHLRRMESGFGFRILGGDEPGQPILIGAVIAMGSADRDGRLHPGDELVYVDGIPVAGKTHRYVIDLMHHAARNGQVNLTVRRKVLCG

pKd | Binder
3.68 | B1
3.54 | B2

Molecular target: T10, MPP7, Q5T2T1
Assay: holdup assay
Design: key: below the threshold = too weak to quantify, mostly under pKd 3.1 to 4
Settings: plain residues with an end cap or a label only (N-terminal biotin on a linker: ado-ado)

pKd | Binder
3.57 | B1
below the threshold | B2

Molecular target: NHERF4_2, Q86UT5
Assay: holdup assay
Design: key: below the threshold = too weak to quantify, mostly under pKd 3.1 to 4
Settings: plain residues with an end cap or a label only (N-terminal biotin on a linker: ado-ado)

NHERF4_2, Q86UT5, sequence (Q86UT5 220-308): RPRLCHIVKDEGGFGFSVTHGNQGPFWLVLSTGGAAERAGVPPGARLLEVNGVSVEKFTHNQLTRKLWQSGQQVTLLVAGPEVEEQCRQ

pKd | Binder
below the threshold | B1
below the threshold | B2

Molecular target: T11, PDZRN3_1, Q9UPQ7
Assay: holdup assay
Design: key: below the threshold = too weak to quantify, mostly under pKd 3.1 to 4
Settings: plain residues with an end cap or a label only (N-terminal biotin on a linker: ado-ado)

pKd | Binder
4.91 | B1
below the threshold | B2
